PMC6598095 (Journal of Experimental Botany, 2019)

T1: AtGL3 (F177I) (Arabidopsis thaliana, UniProt Q9FN69 1-637, F177I)
T1 sequence: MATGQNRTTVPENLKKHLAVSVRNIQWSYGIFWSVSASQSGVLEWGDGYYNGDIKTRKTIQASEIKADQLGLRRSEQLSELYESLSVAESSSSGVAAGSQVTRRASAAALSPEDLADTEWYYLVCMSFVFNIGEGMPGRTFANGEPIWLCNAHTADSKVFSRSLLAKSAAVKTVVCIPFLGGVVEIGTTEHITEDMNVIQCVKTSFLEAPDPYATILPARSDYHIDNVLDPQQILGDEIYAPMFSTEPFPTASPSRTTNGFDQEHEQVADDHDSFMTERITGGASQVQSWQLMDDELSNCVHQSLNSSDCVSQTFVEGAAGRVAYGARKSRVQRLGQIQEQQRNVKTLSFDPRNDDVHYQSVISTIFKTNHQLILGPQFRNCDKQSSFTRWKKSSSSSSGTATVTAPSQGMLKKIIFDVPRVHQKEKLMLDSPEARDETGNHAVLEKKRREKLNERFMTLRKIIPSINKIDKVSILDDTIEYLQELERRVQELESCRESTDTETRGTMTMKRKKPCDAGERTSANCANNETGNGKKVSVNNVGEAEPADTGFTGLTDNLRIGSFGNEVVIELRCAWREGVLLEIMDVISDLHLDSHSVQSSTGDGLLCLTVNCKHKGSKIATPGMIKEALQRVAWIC


Molecular target: T1, AtGL3 (F177I)
Assay: pull-down

Binder | percent reduction of binding against wild-type AtGL3 [%]
AtGL1 (natural protein) MRIRRRDEKENQEYKKGLWTVEEDNILMDYVLNHGTGQWNRIVRKTGLKRCGKSCRLRWMNYLSPNVNKGNFTEQEEDLIIRLHKLLGNRWSLIAKRVPGRTDNQVKNYWNTHLSKKLVGDYSSAVKTTGEDDDSPPSLFITAATPSSCHHQQENIYENIAKSFNGVVSASYEDKPKQELAQKDVLMATTNDPSHYYGNNALWVHDDDFELSSLVMMNFASGDVEYCL | 30
AtTT2 (natural protein) MGKRATTSVRREELNRGAWTDHEDKILRDYITTHGEGKWSTLPNQAGLKRCGKSCRLRWKNYLRPGIKRGNISSDEEELIIRLHNLLGNRWSLIAGRLPGRTDNEIKNHWNSNLRKRLPKTQTKQPKRIKHSTNNENNVCVIRTKAIRCSKTLLFSDLSLQKKSSTSPLPLKEQEMDQGGSSLMGDLEFDFDRIHSEFHFPDLMDFDGLDCGNVTSLVSSNEILGELVPAQGNLDLNRPFTSCHHRGDDEDWLRDFTC | 30
AtPAP1 (natural protein) MEGSSKGLRKGAWTTEEDSLLRQCINKYGEGKWHQVPVRAGLNRCRKSCRLRWLNYLKPSIKRGKLSSDEVDLLLRLHRLLGNRWSLIAGRLPGRTANDVKNYWNTHLSKKHEPCCKIKMKKRDITPIPTTPALKNNVYKPRPRSFTVNNDCNHLNAPPKVDVNPPCLGLNINNVCDNSIIYNKDKKKDQLVNNLIDGDNMWLEKFLEESQEVDILVPEATTTEKGDTLAFDVDQLWSLFDGETVKFD | 30
AtPAP2 (natural protein) MEGSSKGLRKGAWTAEEDSLLRLCIDKYGEGKWHQVPLRAGLNRCRKSCRLRWLNYLKPSIKRGRLSNDEVDLLLRLHKLLGNRWSLIAGRLPGRTANDVKNYWNTHLSKKHESSCCKSKMKKKNIISPPTTPVQKIGVFKPRPRSFSVNNGCSHLNGLPEVDLIPSCLGLKKNNVCENSITCNKDDEKDDFVNNLMNGDNMWLENLLGENQEADAIVPEATTAEHGATLAFDVEQLWSLFDGETVELD | 30
AtMYB61 (natural protein) not shown | 30
AtWER (natural protein) MRKKVSSSGDEGNNEYKKGLWTVEEDKILMDYVKAHGKGHWNRIAKKTGLKRCGKSCRLRWMNYLSPNVKRGNFTEQEEDLIIRLHKLLGNRWSLIAKRVPGRTDNQVKNYWNTHLSKKLGIKDQKTKQSNGDIVYQINLPNPTETSEETKISNIVDNNNILGDEIQEDHQGSNYLSSLWVHEDEFELSTLTNMMDFIDGHCF | 30
